The record followed here is paper PMC4956541.

Substrate in this data set: O=S(=O)(O)O
The data set is described as follows: cells, lysate or membranes. As to conditions: ND96(Cl-) bath, pH 7.4, extracellular sulfate, labelled compound. Format: cell-based, Homo sapiens.

B1: human SLC26A1 (Homo sapiens) (protein)
chain: MDESPEPLQQGRGPVPVRRQRPAPRGLREMLKARLWCSCSCSVLCVRALVQDLLPATRWLRQYRPREYLAGDVMSGLVIGIILVPQAIAYSLLAGLQPIYSLYTSFFANLIYFLMGTSRHVSVGIFSLLCLMVGQVVDRELQLAGFDPSQDGLQPGANSSTLNGSAAMLDCGRDCYAIRVATALTLMTGLYQVLMGVLRLGFVSAYLSQPLLDGFAMGASVTILTSQLKHLLGVRIPRHQGPGMVVLTWLSLLRGAGQANVCDVVTSTVCLAVLLAAKELSDRYRHRLRVPLPTELLVIVVATLVSHFGQLHKRFGSSVAGDIPTGFMPPQVPEPRLMQRVALDAVALALVAAAFSISLAEMFARSHGYSVRANQELLAVGCCNVLPAFLHCFATSAALAKSLVKTATGCRTQLSSVVSATVVLLVLLALAPLFHDLQRSVLACVIVVSLRGALRKVWDLPRLWRMSPADALVWAGTAATCMLVSTEAGLLAGVILSLLSLAGRTQRPRTALLARIGDTAFYEDATEFEGLVPEPGVRVFRFGGPLYYANKDFFLQSLYSLTGLDAGCMAARRKEGGSETGVGEGGPAQGEDLGPVSTRAALVPAAAGFHTVVIDCAPLLFLDAAGVSTLQDLRRDYGALGISLLLACCSPPVRDILSRGGFLGEGPGDTAEEEQLFLSVHDAVQTARARHRELEATDAHL
As to B1, the K0.5 came out at 0.26 ± 0.04 mM.
